PMC7689938, “Abscisic acid promotes jasmonic acid biosynthesis via a ‘SAPK10‐bZIP72‐AOC’ pathway to synergistically inhibit seed germination in rice (Oryza sativa)” (The New Phytologist, 2020)
Positions count from the first letter of the chain named. One block for each binder: values may come before it.

Biological target: T1, GST-SAPK10 (rice (Oryza sativa L. ssp. japonica cv …, UniProt Q75H77 1-362))
T1 construct: SAPK10 (SnRK2 type kinase), rice; full-length CDS in pGEX-4T-1; Purified GST-SAPK10 gave a phosphorylation band with Phos-tag (autophosphorylation, not detected in S177A); source: Transetta (DE3) cells, purified (GST-Sefinose Kit)
T1 sequence (looked up): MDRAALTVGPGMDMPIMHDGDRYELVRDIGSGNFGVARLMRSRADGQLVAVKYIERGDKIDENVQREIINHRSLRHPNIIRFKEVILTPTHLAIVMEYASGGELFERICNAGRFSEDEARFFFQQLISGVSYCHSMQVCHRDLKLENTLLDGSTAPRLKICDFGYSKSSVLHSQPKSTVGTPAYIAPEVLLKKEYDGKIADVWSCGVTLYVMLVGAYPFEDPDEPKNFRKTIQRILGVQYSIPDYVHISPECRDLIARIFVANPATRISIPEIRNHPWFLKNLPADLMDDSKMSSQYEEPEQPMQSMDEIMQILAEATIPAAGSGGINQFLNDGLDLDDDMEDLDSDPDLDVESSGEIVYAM
Assay: pull-down; GST fusion on glutathione high-capacity magnetic agarose beads; 50 mM Tris-HCl pH 7.5, 5% glycerol, 1 mM EDTA, 1 mM DTT, 1 mM PMSF, 0.01% Nonidet P-40, 150 mM KCl; 4°C, 2 h; blots with anti-His and anti-GST
Details: both partners purified

- binding result: binds
B1: His-SAPK10 (enzyme, UniProt Q75H77 1-362, looked up)
chain: T1 sequence (looked up)
notes: SAPK10 (SnRK2 type kinase), rice; full-length CDS in pET28a; source: Transetta (DE3) cells, purified (6 x His-Tagged Protein Purification Kit)

- binding result: binds
B2: His-SAPK10^S177A (enzyme, UniProt Q75H77 1-362, looked up)
chain: T1 sequence (looked up) with S177A
notes: SAPK10, rice, Ser177 replaced by alanine; full-length CDS in pET28a; source: Transetta (DE3) cells, purified (6 x His-Tagged Protein Purification Kit)
